Positions count from the first letter of the chain named.
T1: human LAG-3 domain 1-2 Fc fusion, chimeric construct #17 (mutated region AA 114-117) (human, UniProt P18627 23-266)
T1 construct: not shown: human IgG1 Fc, AA P101-K330
T1 chain: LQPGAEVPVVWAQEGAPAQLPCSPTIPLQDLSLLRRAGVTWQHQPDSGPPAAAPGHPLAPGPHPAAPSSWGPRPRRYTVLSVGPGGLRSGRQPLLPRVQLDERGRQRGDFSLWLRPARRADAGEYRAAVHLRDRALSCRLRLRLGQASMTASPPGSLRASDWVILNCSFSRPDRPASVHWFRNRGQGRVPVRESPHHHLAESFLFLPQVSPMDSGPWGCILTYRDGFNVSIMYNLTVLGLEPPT

T2: human LAG-3 domain 1-2 Fc fusion, chimeric construct #26 (mutated region AA 157-161) (human, UniProt P18627 23-266)
T2 construct: not shown: human IgG1 Fc, AA P101-K330
T2 chain: T1 chain with Q92L, L95Q, A135D, L136F, R139S

T3: human LAG-3 domain 1-2 Fc fusion, chimeric construct #18 (mutated region AA 114-119) (human, UniProt P18627 23-266)
T3 construct: not shown: human IgG1 Fc, AA P101-K330
T3 chain: T1 chain with P96S, R97H

T4: human LAG-3 domain 1-2 Fc fusion, chimeric construct #8 (mutated region AA 59-66) (human, UniProt P18627 23-266)
T4 construct: not shown: human IgG1 Fc, AA P101-K330
T4 chain: T1 chain with A37G, G38W, Q44R, Q92L, L95Q

T5: human LAG-3 domain 1-2 Fc fusion, chimeric construct #23 (mutated region AA 148-152) (human, UniProt P18627 23-266)
T5 construct: not shown: human IgG1 Fc, AA P101-K330
T5 chain: T1 chain with Q92L, L95Q, R126H, A128F, H130R

T6: human LAG-3 domain 1-2 Fc fusion, chimeric construct #16 (mutated region AA 98-105) (human, UniProt P18627 23-266)
T6 construct: not shown: human IgG1 Fc, AA P101-K330
T6 chain: T1 chain with R76S, T78V, S81M, V82R, G83A, Q92L, L95Q

T7: human LAG-3 domain 1-2 Fc fusion, chimeric construct #11 (mutated region AA 74-82) (human, UniProt P18627 23-266)
T7 construct: not shown: human IgG1 Fc, AA P101-K330
T7 chain: T1 chain with A52S, A53I, G55A, H56L, P57D, A59L, P60Q, Q92L, L95Q

T8: human LAG-3 domain 1-2 Fc fusion, chimeric construct #19 (mutated region AA 118-127) (human, UniProt P18627 23-266)
T8 construct: not shown: human IgG1 Fc, AA P101-K330
T8 chain: T1 chain with Q92L, L95Q, P96S, R97H, D101E, E102K, R105P

B1: Fab fragment of antibody 15011 (Fab, V domains shown, not shown: a dimerising Fc or GST)
VH: EVQLLESGGGLVQPGGSLRLSCAASGFDFRSYAMMWVRQAPGKGLEWVGGINGEVGGSNTYYAPAVKGRATISRDNSKNTLYLQMNSLRAEDTAVYYCVKGAGACGICNDDIDAWGQGTLVTVSS
VL: SYELTQDPAVSVALGQTVRITCSGAGSYAGSYYYGWHQQKPGQAPVTVIYDNDKRPSNIPDRFSGSSSGNTASLTITGAQAEDEADYYCGSTNDNDDGGLFGSGTKVTVLG
notes: monomeric Fab made by GingisKHAN digestion of the IgG1
B2: Fab fragment of antibody 15532 (Fab, V domains shown, not shown: a dimerising Fc or GST)
VH: QVQLQQWGAGLLRPSETLSLTCAVYGESFSGYYWNWIRQPPGKGLEWIGEINHSGSTNYNPSLKSRVTISVDTSKTQFSLKLSSVTAADTAVYYCARGWDLLDWNDYWNEYWGQGTLVTVSS
VL: EIVLTQSPATLSLSPGERATLSCRASQSVSSYLAWYQQKPGQAPRLLIYDASNRATGIPARFSGSGSGTDFTLTISSLEPEDFAVYYCQQRSNWPLTFGGGTKVEIKR
notes: as for B1
B3: Fab fragment of antibody 15431 (Fab, V domains shown, not shown: a dimerising Fc or GST)
VH: QVQLQQSGPGLVKPSQTLSLTCAISGDSVSSNSAAWNWIRQSPSRGLEWLGRTYYRSKWYNDYAVSVKSRITINPDTSKNQFSLQLNSVTPEDTAVYYCARDDDWNDFDYWGQGTLVTVSS
VL: B2 VL
notes: as for B1
B4: Fab fragment of antibody 15572 (Fab, V domains shown, not shown: a dimerising Fc or GST)
VH: QLQLQESGPGLVKPSETLSLTCTVSGDSISSSSYYWGWIRQPPGKGLEWIGSIFYSGNTYYNPSLKSRVTISVDTSKNQFSLKLSSVTAADTAVYYCAREDDFLTDYYGAFDIWGQGTMVTVSS
VL: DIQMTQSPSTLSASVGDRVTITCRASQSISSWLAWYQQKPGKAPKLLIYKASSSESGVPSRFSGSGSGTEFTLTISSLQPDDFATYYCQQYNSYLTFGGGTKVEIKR
notes: as for B1

Experiments:
Experiment in all cases: SPR, Fab over captured mutant LAG-3-Fc;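 further: LAG-3 fusion proteins captured on an anti-human IgG Fc sensor chip and read on an IBIS MX96 biosensor, Fab association and dissociation each 15 min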
[1] = target: T1, human LAG-3 domain 1-2 Fc fusion, …
Experimental: (§1) The LAG-3 fusion proteins were immobilized onto a G-a-hu-IgG Fc SensEye® (Ssens BV, The Netherlands) for 15 minutes using a Continuous Flow Microspotter (CFM, Wasatch Microfluidics, Salt Lake City, US). After spotting, the SensEye® was positioned in an IBIS MX96 biosensor and captured proteins were evaluated for binding affinity. […] Fab association was performed for 15 minutes and antigen dissociation was performed for 15 minutes. The recorded binding responses were fitted to a simple Langmuir 1:1 binding model with Scrubber 2 software for calculation of the on-rate (kon or ka), off-rate (koff or kd) and affinity (KD) constants.

[2] = target: T2, human LAG-3 domain 1-2 Fc fusion, …
Experimental: as §1

[3] = target: T3, human LAG-3 domain 1-2 Fc fusion, …
Experimental: as §1

[4] = target: T4, human LAG-3 domain 1-2 Fc fusion, …
Experimental: as §1

[5] = target: T5, human LAG-3 domain 1-2 Fc fusion, …
Experimental: as §1

[6] = target: T6, human LAG-3 domain 1-2 Fc fusion, …
Experimental: as §1

[7] = target: T7, human LAG-3 domain 1-2 Fc fusion, …
Experimental: as §1

[8] = target: T8, human LAG-3 domain 1-2 Fc fusion, …
Experimental: as §1

Binder | KD mutant/KD wild type [1] [fold] | KD mutant/KD wild type [2] [fold] | KD mutant/KD wild type [3] [fold] | KD mutant/KD wild type [4] [fold] | KD mutant/KD wild type [5] [fold] | KD mutant/KD wild type [6] [fold] | KD mutant/KD wild type [7] [fold] | KD mutant/KD wild type [8] [fold] | binding result [4] | binding result [6] | binding result [2] | binding result [5] | binding result [8]
B1 | 2.6 | 0.7 | 2.1 | 0.5 | 2 | 7.2 | 0.6 | 0.6 |  |  |  |  | 
B2 | 1.4 | 1.1 | 1.1 | 2.7 | 2.5 | 6.3 | 1.5 | 0.5 |  |  |  |  | 
B3 | 0.5 | 0.6 | 0.6 |  | 3.5 |  | 0.4 | 0.5 | no binding (tested: 300 nM) | no binding (tested: 300 nM) |  |  | 
B4 | 0.5 |  | 0.6 |  |  |  | 0.5 |  | no binding (tested: 300 nM) | no binding (tested: 300 nM) | no binding (tested: 300 nM) | no binding (tested: 300 nM) | no binding (tested: 300 nM)
